{"source": "the nanobody polyreactivity screen of Harvey et al. (2022)", "data": [{"test": "yeast display, Sf9 membrane polyspecificity reagent, FACS + sequencing; frameworks hold sequencing errors", "how_it_was_run": "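Nanobodies from a synthetic yeast display library (Saccharomyces cerevisiae BJ5465), induced 36–48 hours with galactose, were stained 1 hour at 4 °C with 10% biotinylated, detergent-solubilized Sf9 membrane reagent, enriched on streptavidin microbeads, then FACS-sorted. Anti-HA (expression) and streptavidin (reagent binding) fluorescence set low and high (top ~1%) gates. Polyreactivity labels come from the gate of origin. Genes were colony-PCR amplified, MiSeq 2 × 250 sequenced and filtered by CDR length.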", "values": [{"sequence": "QVQLVESGGGLVQAGGSLRLSSAASGSIFETYAMGWSRQAPGKERELVAAITQSGGSTYYADSVKGRFTISRDNAKNTVYLQMNSLKPEDTAVYYCAADLVVWWKWGYEYWGQGTQVTVSS", "polyreactivity (PSR sort gate)": "low polyreactivity"}, {"sequence": "QDQLVESGGGLVQAGGSLRLICAASGRTFTFYAMGWSRQAPGKERELVAAIRRGGSTNYADSVKGRFTISRDNAKNTVYLQMNSLKPEDTAVYYCNKRVWYPYWTLDYWGQGTQVTVSS", "polyreactivity (PSR sort gate)": "low polyreactivity"}, {"sequence": "QVQLVESGGGLVQAGGSLRLSCAASGRTFGYNAMGWYSQAPGKERELVAAISYSGGRTYYADSVKGRFTISRDNAKNTVYLQMNSLKPEDTAVYYCAAKNPYKYDYWGQGTQVTVSS", "polyreactivity (PSR sort gate)": "high polyreactivity"}, {"sequence": "QVQLVESGGGLVQAGGSLRLSCAASGRTFKNYAMGWYRQSPGKERELVAVISRRGSSTYYADSVKGRFTISRDNAKNTVYLQMNSLKPEDTAVYYSAARLGVPYPYIAYDYWGQGTQVTVSS", "polyreactivity (PSR sort gate)": "high polyreactivity"}, {"sequence": "QVQLVESGGGLVQAGGSLRLRCAASGRIFRLYDMGWYRHAPGKEREFVAAISSSGDSTYYADSVKGRFTISRDNAKNTVYLQMNSLKPEDTAVYYCAAVTRRYVLSTFYYWGQGTQVTVSS", "polyreactivity (PSR sort gate)": "high polyreactivity"}, {"sequence": "QVQLVESGAGLVQAGGSLRLSCAASGFIFRYYAMGWYRQAPGKERELVARITPRGGRTYYADSVKGRFTISRDNAKNTVYLQMNSLKPEDTAVYYFAAVYPVLHEFGYWGQGTQVTVSS", "polyreactivity (PSR sort gate)": "high polyreactivity"}, {"sequence": "QVQLVESGGGLVQAGGSLRLSCAASGFIFHQNAMGWYRQAPGKERELVAAITRSGTSTYYADSVKGRFTISRDNAKNTVYLQMNSLKPEDTAVYYCAACLPYGYGYDYWGQGTEVTVSS", "polyreactivity (PSR sort gate)": "low polyreactivity"}, {"sequence": "QVQLVESGGCLVQAGGSLRLSCAASGFTFYGYAMAWYRQAPGKERELVAYISWSGGTTYYADSVKGRFTISRDNAKNTVYLQMNSLKPEDTAVYYCNAVRYRYGVFPYYYWGQGTQVTVSS", "polyreactivity (PSR sort gate)": "high polyreactivity"}, {"sequence": "QVQLVESGGCLVQAGGSLRLSCAASGSTFWSYAMGLYRQAPGKARELVAVIYRGGSTNYADSVKGRFTISRDNAKNTVYVQMNSLKREDTAVYYCASRYKTAEYYYWGQGTQVTVSS", "polyreactivity (PSR sort gate)": "high polyreactivity"}, {"sequence": "QVQLVESGGGLVQAGGSLRLSCAASGSILFSYAMGWYIQAPGKEREFVAAITFSGGRTYYADSVKGRFTISRDNAKNTVYLQMNSLKPEDTAVYYCAASYLLIYTQGYRAEYEYWGQGTQVTVSS", "polyreactivity (PSR sort gate)": "low polyreactivity"}, {"sequence": "QVQLVESGGGLVQAGGSLRLSCAASGFTFPVYAMGWSRQAPGKERELVAAISWSGGGTYYADSVKGRFTISRDNAKNTVYVQMNSLKPEDTAVYYCAVEDLSHAYVQHYRYGYGYWGQGTQVTVSS", "polyreactivity (PSR sort gate)": "low polyreactivity"}, {"sequence": "QVQLVESGGGLVQAGGSLRLSCAASGFTFYTYAMGWYRQAPGKERELVATITGRTGSTYYADSVKGRFTISRDNAKNTVYLQMNSLKPEDTAVYYCAADWGKLHVTWFRVNYWGQGTQVTVSS", "polyreactivity (PSR sort gate)": "low polyreactivity"}, {"sequence": "QVQLVESGGGLVHAGGSLRLSCAASGRIFATNVMGWYRQAPGKETEMVAAISRSGASTYYADSVKGRFTISRDNAKTSVYLQMNSLKPEDTAGYYCADRRFYYGDRYDYWGQGTQVTVSS", "polyreactivity (PSR sort gate)": "high polyreactivity"}, {"sequence": "QVQLVESGGGLVQAGGSLRLRCAASGINFGYYAMGWYRQAPGKERELVAAITSGASTDYADSVKGRFTISRDNAKNTVYLQMNSLKPEDTAVYYCNADTSASTYTFPFDYCGQGTQVTVSS", "polyreactivity (PSR sort gate)": "low polyreactivity"}, {"sequence": "QVQLQESGGGLLQAGGSLRLSCAASGSISQYIFMGWYRQAPGKEREFVAGIGYGGTTNYADSVTGRFTISRDNAKNTVYLQMNSLKPEDTAMYYCSAREATEFYLYYWGQGTQVTVSS", "polyreactivity (PSR sort gate)": "low polyreactivity"}, {"sequence": "QVQLVESGGGLVQAGGSLRLSCAASGSIFGGYTMGWYRQAPGKERELVAAISARGGNTYYADSVKGRFTISRDNAKNTVYLQMNSLKPEDTSVYYCAKVRYTQSYRGYGFWGQGTQVTVSS", "polyreactivity (PSR sort gate)": "high polyreactivity"}, {"sequence": "QVQLEESGGGLVQAGGSLRLSCAASGSTFFIYAMGWYRQAPGKEREMVAAISGSGGTTYYADSVKGRFTISRDNAKNTVYLQMNSLKPEDTAVYYCAARTFSAFWRGGYDYWGQGTQVTVSS", "polyreactivity (PSR sort gate)": "low polyreactivity"}, {"sequence": "QVQLVESGGGLVQAGGSLRLSCAASGRILWAYAMGWYRQAPGKEREFVAAISWSTGSTYYADSVKGRFTISRDNAKNTVNIQLNSLQPDDTAVYYCAAQLAKTIRGRGYNSWGQGTQVTVSS", "polyreactivity (PSR sort gate)": "low polyreactivity"}, {"sequence": "QVQLVETGGGLVQAGGSLRLSCAASGNTFGDYAMGWYRQAPGKERELVAAISRSGGSTSYADSVKGRFTISRDNAKNTVYLQMNSLKPADTAVYYCAAYWQRFGYDYWGQGTQVTGSS", "polyreactivity (PSR sort gate)": "low polyreactivity"}, {"sequence": "QVQLVESGGGLVQAGGSLRLSCAASGSTFPYNARGWYRQAPGKERELVAAINSNGGSTYYADSVKGRFTISRDNAKNTVYLQMNSLKPEDTAVYYCAAGFYYRPFYGSSHSYGYWGQGTQVTVSS", "polyreactivity (PSR sort gate)": "low polyreactivity"}, {"sequence": "QVQLEESGGGLVQAGGSLRLSCAASGITFISYAMGWYRQAPGKERELVAVISKSGGRTYYADSVKGRFTISRDNAKNTVYLQMNSLKPEDTAVYYCAATKRYASGMYYWGQGTQVTVSS", "polyreactivity (PSR sort gate)": "high polyreactivity"}, {"sequence": "QVQLVESGGGLVQEGGSLRLSCAASGITFGRYAMGWYRQAPGKERELVAAISWSGGSTYYADSVKGRFTISRDNAKITVYLQMNSLKPEDTAVYSCNARGFPGKFGYWGQGTQVTVSS", "polyreactivity (PSR sort gate)": "high polyreactivity"}, {"sequence": "QDQLVDSGGGLDQAGGSLRLSCAASGIIFPRYALGWYRQAPGKERELVAAITRRGGRTYYADSVKGRFTISRDNAKNTVYLQMNSLKPEDTAVYYCNADFISTLPPKATEEDYWGQGTQVTVSS", "polyreactivity (PSR sort gate)": "high polyreactivity"}, {"sequence": "QVQLVESGGGLVQAGGSLRLSCAASGSIFYYNAMGWYRQPPGKERELVAAISWSGDSTYYADSVKGRFTISRDNAKNTVYLQMNSLKPEDTAVYYCNTELVPWTEYWYDYWGQGNQVTVSS", "polyreactivity (PSR sort gate)": "low polyreactivity"}, {"sequence": "QVQLVESGGGLVQAGGSLRLSCAASGRTFYKNAIGWYRQAPGKERELVAAITATYYADSVKGRFTISRDNAKNTVYLQMNSLKPEDTAVYYCNAYLYPKQPLSPPYPTFEGGYCGQGTQVTVSS", "polyreactivity (PSR sort gate)": "low polyreactivity"}, {"sequence": "QVQLEESGGGLVQAGGSLRLSCAASGFIFLLNFMGWYRQAPAKDRELVAGNRSSTASTYYADSVKGRFTISRDNAKNTFYLEMNCLKPEDTAVSYCAAVSGWQYEYYSWGQGTQVTVSS", "polyreactivity (PSR sort gate)": "low polyreactivity"}, {"sequence": "QVQLVESGGGLVQAGGSLRISSPASGSIFTLYDMGWYRQAPGKERELVSAITEDGASTYYADSVKGRFTISRDIAKNTVYLQMNSLKPEDTAYYYCAAHPTYWPVWYVLYDYWGQGTQVTLSS", "polyreactivity (PSR sort gate)": "low polyreactivity"}, {"sequence": "QVQLVESGGGLVQAGGSLRLSCAASGSILVQNAMGWYRQAPGKERELVAVINSGDSTNYADSVKGRFTISRDNAKNTVFLQMNSLKPEDTAVYYCAVDDVSYYYLRAYNYELSWYGSGLDYWGQGTQVTVSS", "polyreactivity (PSR sort gate)": "low polyreactivity"}, {"sequence": "QVQLVESGGGLVQAGGSLRLSWAASGSIFGLNALGWYRQAPGKERELVADITSGGGNTYSADSVKGRFTISRDNAKNTVYLQMNSLKPEDTAVYYCNADYDLYFSGWYDYWGQGTQVTVSS", "polyreactivity (PSR sort gate)": "low polyreactivity"}, {"sequence": "QVQLVESGGGLVQAGGSLRLSCAASGFTFHDYAMGWYRPAPGKERELVAAITKTGGRTYYADSVKGRFTISRDNAKNTVYLQMNSLKPEVTAVYYCAAKSYWGQGTQVTVSS", "polyreactivity (PSR sort gate)": "high polyreactivity"}, {"sequence": "QVQLVESGGGLVQAGGSLRLSCAASGSILRPNAMGWYRQAPGKERELVAAITTSGGSTYYADSVKGRFTISRDNAKNTVYLQMNSLKPEDTAVYYCAARRQRDRYGYWGQGTQVTVSS", "polyreactivity (PSR sort gate)": "high polyreactivity"}, {"sequence": "QVQLVESGGGLVQAGGSLRLSCAASGFTFRWYAMGWYRQAPGKERELVAAIDWSGTTTYADSVKGRFTISRDNAKNTVYLQMNSLKPEDTAVYYCAAVFRRSGYASPYDYWGQGTQVTVSS", "polyreactivity (PSR sort gate)": "high polyreactivity"}, {"sequence": "QFQLVESVGGLVQAGGSLRLSCAASGITFPANAMGWYRQAPGKERELVAAISSSGGSTYYADSVKGRFTISRDNAKNTVYLQMNSLKPEDTAVYYCAAYYGPSRSLYYYWGQGTQVTVSS", "polyreactivity (PSR sort gate)": "high polyreactivity"}, {"sequence": "QVQLVESGGGLVQAGGSLRLSCAASGLIFRPYAMGWYRQAPGQERELVAAITSGGSTDYADSVKGRFTISRDNAKNTVYLQMNSLKPEDTAVYYCNADIYPPDGYPWQGDYDYWGQGTQVTVSS", "polyreactivity (PSR sort gate)": "low polyreactivity"}, {"sequence": "QVQLVESGGGLVQAGGSLRLSCAASGSTFWPYAMGRYRPAPGKERELGATIRGGGTSTYYADSVKGRVTISRDNAKNTVYLQMNSLKPEDTAGYYCAARGFYTGSYPGYYYWGQGTQVTVSS", "polyreactivity (PSR sort gate)": "high polyreactivity"}, {"sequence": "QVQLVESGGGLVQAGGSLRLSCAPSGITFGEYAMGWYRPAPGKERELVAAISRSGGSTYADSVKGRFTISRDNAKNTVYLQMNSLKPEDTAVYYCAAYSGVGYLWFDYWGQGTQVTVSS", "polyreactivity (PSR sort gate)": "low polyreactivity"}, {"sequence": "QVQLVESGGGLVQAGGSLRLSCAASGSTFVPYTMGWYRQAPGKERELVAVITSGGSTNYADSVKGRFTISLDNAKNTVYLQMNSLKPEDTAVYYCDARRRGRKERGEDYWGQGTQVTVSS", "polyreactivity (PSR sort gate)": "high polyreactivity"}, {"sequence": "QVQLVESGGGLVQAGGSLRLSCAASGSIFGRYTMGWYRQAPGKERELVAAISSSGGRTYYADSVKGRFTISRDNAKNTVYLQMNSLKPEDTAVYYCNKGYGYEYYWGQGTQVTVSS", "polyreactivity (PSR sort gate)": "low polyreactivity"}, {"sequence": "QVQLVESGGGLVQAGGSLRLSCAASGLTFVFYAMGWYRQAPGKERELVAAISWSTGRTYYADSVKGRFTISRDNAKNTVYLQMNSLKPEGTAVYYCAASYLGRKYDYWGQGTQVTVSS", "polyreactivity (PSR sort gate)": "high polyreactivity"}, {"sequence": "QVHLVESGGGLVQAGGSLRLSCAASGRTFRSNAMGWYRQAPGKEREFVAAISGRGGITYYADSVKGRFTISRDNAKNTVYLQMNSLKPEDTAVYYCNRDVKYHDYVYVTAIKSPGYNYWGQGTQVTVSS", "polyreactivity (PSR sort gate)": "low polyreactivity"}, {"sequence": "QVQLVESGGGLVQAGGSLRLICAASGSIFVNYAMGWYRQAPGKERELVAAITRSGGGTYYADSVKGRFTISRDNAKNTVYLQMNSLKPEVTAVYYCAARLGYAGNRDGYWGQGTQVTVSS", "polyreactivity (PSR sort gate)": "high polyreactivity"}, {"sequence": "QVQLLESGGGLVQAGGSLRLSCAASGRTFDWNMGWYRQAPGKERELVAGITFSVDSTYYADSVKGRFTISRDNAKNTVYLQMNSLKPEDTAYWGQGTQVSVSS", "polyreactivity (PSR sort gate)": "low polyreactivity"}, {"sequence": "QVQLVESGGGLVQAGGSLRLSCAASGTFSSNAMGWYRQAPGKERELVAAISSTGTTTYYADSVKGRFTISRDNAKNTVYLQMNSLKPEDTAVYYCAKYAYTSVHSWYYYWGQGTQVTVSS", "polyreactivity (PSR sort gate)": "high polyreactivity"}]}]}
